According to the supplement of paper PMC7125110:
± gives the standard error. Fewer inactive variants are shown than the library holds.

B1: glmS ribozyme (parent)
chain: AUAAAAGCGCCAGAACUACAGAAAUGUAGUUGACGAGGAGGAGGUUUAUCGAAUUUUCGGCGGAUGCCUCCAAA

Key:
Conditions in all cases: with glucosamine-6-phosphate
[1] = variants of: B1; assay: self-cleavage kobs at 160 uM GlcN6P; higher = faster cleavage; RNA array
In short: (§1)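 Barcoded ribozyme variants were transcribed in situ on sequenced MiSeq chips by E. coli RNA polymerase. At 37 °C, a hybridised Cy3 probe tracked them while glucosamine-6-phosphate (40 μM to 10 mM) in HEPES/KCl/Mg(OAc)2 buffer flowed in and tiles were imaged over ~14 h. Per-tile medians of signals normalised to baseline and to non-cleaving reference variants were fit to one- or two-exponential decays, giving kobs. kcat and KM came from weighted Michaelis–Menten fits across concentrations.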

[2] = variants of: B1; assay: self-cleavage kobs at 640 uM GlcN6P; higher = faster cleavage; RNA array
In short: as §1

[3] = variants of: B1; assay: self-cleavage kobs at 2500 uM GlcN6P; higher = faster cleavage; RNA array
In short: as §1

[4] = variants of: B1; assay: self-cleavage kobs at 10000 uM GlcN6P; higher = faster cleavage; RNA array
In short: as §1

| Variant | self-cleavage kobs at 160 uM GlcN6P [1] | self-cleavage kobs at 640 uM GlcN6P [2] | self-cleavage kobs at 2500 uM GlcN6P [3] | self-cleavage kobs at 10000 uM GlcN6P [4] |
| --- | --- | --- | --- | --- |
| G9A G29A A42G A48C U65A | < 1e-05 s⁻¹ | < 1e-05 s⁻¹ | < 1e-05 s⁻¹ |  |
| C11A G41U G43C | < 1e-05 s⁻¹ | < 1e-05 s⁻¹ |  |  |
| A6G C16G G38A | < 1e-05 s⁻¹ | < 1e-05 s⁻¹ |  |  |
| C11U A42U G43U A53G C68G | 0.0001 ± 3.7e-05 s⁻¹ | 0.000213 ± 6.4e-05 s⁻¹ | 0.0001 ± 3.5e-05 s⁻¹ |  |
| A14U U45A U46C | 0.000306 ± 0.0001 s⁻¹ | 0.00108 ± 0.00027 s⁻¹ | 0.00191 ± 0.00053 s⁻¹ |  |
| G32C G51C C68U | < 1e-05 s⁻¹ |  | < 1e-05 s⁻¹ |  |
| G43C A48G C71G | < 1e-05 s⁻¹ | < 1e-05 s⁻¹ | < 1e-05 s⁻¹ |  |
| G44U C50A | < 1e-05 s⁻¹ | < 1e-05 s⁻¹ | < 1e-05 s⁻¹ | < 1e-05 s⁻¹ |
| A12G U47A C70U | 5.89e-05 ± 2.2e-05 s⁻¹ | 0.000192 ± 3e-05 s⁻¹ | 0.000394 ± 9.5e-05 s⁻¹ |  |
| A6U C10G A36C | < 1e-05 s⁻¹ |  | < 1e-05 s⁻¹ |  |
| G13A A42G G43U C70A | < 1e-05 s⁻¹ | < 1e-05 s⁻¹ |  | < 1e-05 s⁻¹ |
| G29A U31G G62A | < 1e-05 s⁻¹ |  |  |  |
| U57G U69G | 8.11e-05 ± 1.7e-05 s⁻¹ | 0.000113 ± 2.8e-05 s⁻¹ | 4.87e-05 ± 1.6e-05 s⁻¹ |  |
| G41C G51C A64C | < 1e-05 s⁻¹ |  |  |  |
| G9U C16U | < 1e-05 s⁻¹ | < 1e-05 s⁻¹ | < 1e-05 s⁻¹ | < 1e-05 s⁻¹ |
| A39G G63U | < 1e-05 s⁻¹ | < 1e-05 s⁻¹ | < 1e-05 s⁻¹ | < 1e-05 s⁻¹ |
| G29U G35U G38U A52G | < 1e-05 s⁻¹ | < 1e-05 s⁻¹ |  |  |
| G9A G29A A48C C58U | < 1e-05 s⁻¹ |  |  |  |
| A6U C11A A12U C34G C50U U55G | < 1e-05 s⁻¹ | < 1e-05 s⁻¹ | < 1e-05 s⁻¹ |  |
| G7U C67A | < 1e-05 s⁻¹ | < 1e-05 s⁻¹ |  |  |
| A53G U55A G66U | 0.000163 ± 4.6e-05 s⁻¹ | 0.000436 ± 9.4e-05 s⁻¹ | 0.000351 ± 0.00011 s⁻¹ |  |
| G13C A39C A53C | < 1e-05 s⁻¹ |  |  |  |
| C34G C58U A64C C67G | 4.06e-05 ± 2e-05 s⁻¹ | 7.23e-05 ± 2.6e-05 s⁻¹ |  |  |

| Variant | self-cleavage kobs at 160 uM GlcN6P [1] | self-cleavage kobs at 640 uM GlcN6P [2] | self-cleavage kobs at 2500 uM GlcN6P [3] | self-cleavage kobs at 10000 uM GlcN6P [4] |
| --- | --- | --- | --- | --- |
| C8U A39C C50G C61G | < 1e-05 s⁻¹ | < 1e-05 s⁻¹ | < 1e-05 s⁻¹ |  |
| A14C U30G A36U A53G | < 1e-05 s⁻¹ | < 1e-05 s⁻¹ | < 1e-05 s⁻¹ |  |
| G35C C71A | < 1e-05 s⁻¹ | < 1e-05 s⁻¹ | < 1e-05 s⁻¹ |  |
| A6G C16G G40A C50U C70G | < 1e-05 s⁻¹ | < 1e-05 s⁻¹ | < 1e-05 s⁻¹ | < 1e-05 s⁻¹ |
| C8G G44C | < 1e-05 s⁻¹ | < 1e-05 s⁻¹ | < 1e-05 s⁻¹ | < 1e-05 s⁻¹ |
| G7C C50U G51U C70A | < 1e-05 s⁻¹ |  | < 1e-05 s⁻¹ |  |
| A12U U31G U69C | 0.000336 ± 6.5e-05 s⁻¹ | 0.000408 ± 0.00019 s⁻¹ | 0.0026 ± 0.00042 s⁻¹ |  |
| A36C A42G | < 1e-05 s⁻¹ |  | < 1e-05 s⁻¹ | < 1e-05 s⁻¹ |
| A6G C8G U31A G32U | < 1e-05 s⁻¹ |  |  |  |
| A36G G41A G63U | < 1e-05 s⁻¹ | < 1e-05 s⁻¹ |  |  |
| G9C A15U G43U | < 1e-05 s⁻¹ | < 1e-05 s⁻¹ | < 1e-05 s⁻¹ |  |
| C8U C16A A39C U46C G51A U65G U69A | < 1e-05 s⁻¹ |  | < 1e-05 s⁻¹ |  |
| G37U G51C A52U G63U | < 1e-05 s⁻¹ |  |  |  |
| G38C G59C C67G | < 1e-05 s⁻¹ |  | < 1e-05 s⁻¹ |  |
| G29U A39G U56A | 8.2e-05 ± 2.8e-05 s⁻¹ | 0.001 ± 0.00039 s⁻¹ | 0.00181 ± 0.00055 s⁻¹ |  |
| G38A G40U | < 1e-05 s⁻¹ | < 1e-05 s⁻¹ | < 1e-05 s⁻¹ | < 1e-05 s⁻¹ |
| C8A A15U U47C U55A G63C U65G | < 1e-05 s⁻¹ |  |  |  |
| U47A G63U | < 1e-05 s⁻¹ | < 1e-05 s⁻¹ | < 1e-05 s⁻¹ | < 1e-05 s⁻¹ |
| G7A U54G | < 1e-05 s⁻¹ |  |  | 4.41e-05 ± 1.5e-05 s⁻¹ |
| G7C G9U A36G C68A | < 1e-05 s⁻¹ | < 1e-05 s⁻¹ | < 1e-05 s⁻¹ |  |
| G29C G44A G60A A64G | < 1e-05 s⁻¹ | < 1e-05 s⁻¹ | < 1e-05 s⁻¹ |  |
| A6C A12G C68G C70G | < 1e-05 s⁻¹ | < 1e-05 s⁻¹ | < 1e-05 s⁻¹ |  |
| A39U G41A G62U | < 1e-05 s⁻¹ |  | < 1e-05 s⁻¹ |  |

| Variant | self-cleavage kobs at 160 uM GlcN6P [1] | self-cleavage kobs at 640 uM GlcN6P [2] | self-cleavage kobs at 2500 uM GlcN6P [3] | self-cleavage kobs at 10000 uM GlcN6P [4] |
| --- | --- | --- | --- | --- |
| A33G A53C C71U | < 1e-05 s⁻¹ |  |  |  |
| C8G G40C U49C C61A | < 1e-05 s⁻¹ | < 1e-05 s⁻¹ | < 1e-05 s⁻¹ |  |
| A12U G35A G40U | < 1e-05 s⁻¹ | < 1e-05 s⁻¹ | < 1e-05 s⁻¹ |  |
| C8U G32U G62U C71U | < 1e-05 s⁻¹ |  | < 1e-05 s⁻¹ |  |
| G37U A42U A53G | < 1e-05 s⁻¹ |  | < 1e-05 s⁻¹ |  |
| U57C G63A | < 1e-05 s⁻¹ | < 1e-05 s⁻¹ | < 1e-05 s⁻¹ | < 1e-05 s⁻¹ |
| C8A A33U A64G C67U C71G | < 1e-05 s⁻¹ |  |  |  |
| U49G G63U | < 1e-05 s⁻¹ |  | < 1e-05 s⁻¹ | < 1e-05 s⁻¹ |
| A12G G41U G51C C71A | < 1e-05 s⁻¹ | < 1e-05 s⁻¹ | < 1e-05 s⁻¹ |  |
| G9C A33U A36G U45A A48C | < 1e-05 s⁻¹ | < 1e-05 s⁻¹ | < 1e-05 s⁻¹ |  |
| G9C U49C | < 1e-05 s⁻¹ | < 1e-05 s⁻¹ | < 1e-05 s⁻¹ | < 1e-05 s⁻¹ |
| G13U A42U | < 1e-05 s⁻¹ | < 1e-05 s⁻¹ | < 1e-05 s⁻¹ |  |
| G9A A12U A33C G62U | < 1e-05 s⁻¹ |  |  |  |
| C10G G37C A48U C61A U69C | < 1e-05 s⁻¹ |  | < 1e-05 s⁻¹ |  |
| A6U A42U C61G | < 1e-05 s⁻¹ |  |  |  |
| G51C G60A U69A | < 1e-05 s⁻¹ |  |  |  |
| C10A C11G A12C G13U | < 1e-05 s⁻¹ |  | < 1e-05 s⁻¹ |  |
| G7U C8U A12G G51C C61U | < 1e-05 s⁻¹ | < 1e-05 s⁻¹ |  |  |
| C8G G32U C58U | < 1e-05 s⁻¹ | < 1e-05 s⁻¹ |  |  |
| C8G C11A | < 1e-05 s⁻¹ | < 1e-05 s⁻¹ | < 1e-05 s⁻¹ | < 1e-05 s⁻¹ |
| G7U C10A G29C U57C | < 1e-05 s⁻¹ | < 1e-05 s⁻¹ | < 1e-05 s⁻¹ |  |
| G32C A36U C50A C70G | 0.0002 ± 3.9e-05 s⁻¹ | 0.000332 ± 8.2e-05 s⁻¹ | 0.000299 ± 0.0001 s⁻¹ |  |
| C10U A33U G62U C71A | < 1e-05 s⁻¹ | < 1e-05 s⁻¹ | < 1e-05 s⁻¹ | < 1e-05 s⁻¹ |

| Variant | self-cleavage kobs at 160 uM GlcN6P [1] | self-cleavage kobs at 640 uM GlcN6P [2] | self-cleavage kobs at 2500 uM GlcN6P [3] | self-cleavage kobs at 10000 uM GlcN6P [4] |
| --- | --- | --- | --- | --- |
| G40A C67G | < 1e-05 s⁻¹ | < 1e-05 s⁻¹ |  |  |
| G13C C16A C68U | < 1e-05 s⁻¹ |  |  |  |
| G37C C71G | < 1e-05 s⁻¹ |  |  | < 1e-05 s⁻¹ |
| U49G G60C | < 1e-05 s⁻¹ | < 1e-05 s⁻¹ | < 1e-05 s⁻¹ |  |
| A39C G41U U46G | < 1e-05 s⁻¹ |  |  |  |
| A6G A36G G44U C61U | < 1e-05 s⁻¹ | < 1e-05 s⁻¹ | < 1e-05 s⁻¹ |  |
| A36U G63U | < 1e-05 s⁻¹ | < 1e-05 s⁻¹ | < 1e-05 s⁻¹ |  |
| G9U G37C | < 1e-05 s⁻¹ | < 1e-05 s⁻¹ | < 1e-05 s⁻¹ | < 1e-05 s⁻¹ |
| G7A U65C | < 1e-05 s⁻¹ | < 1e-05 s⁻¹ | < 1e-05 s⁻¹ | < 1e-05 s⁻¹ |
| A14G G29A A36U U47C C67U | < 1e-05 s⁻¹ | < 1e-05 s⁻¹ |  |  |
| A6U G38U G43U | < 1e-05 s⁻¹ |  | < 1e-05 s⁻¹ |  |
| A36G G40A G44A U46G G51C | < 1e-05 s⁻¹ |  | < 1e-05 s⁻¹ |  |
| A14G G35U G40A | < 1e-05 s⁻¹ |  |  |  |
| G51U U55G C58G C61G | 3.64e-05 ± 1.6e-05 s⁻¹ |  |  |  |
| G13U G32U C34A G35U | < 1e-05 s⁻¹ | < 1e-05 s⁻¹ | < 1e-05 s⁻¹ |  |
| C11G U46G C61A G66A | < 1e-05 s⁻¹ | < 1e-05 s⁻¹ | < 1e-05 s⁻¹ |  |
| C34U A52C A64U C67U | < 1e-05 s⁻¹ | < 1e-05 s⁻¹ | < 1e-05 s⁻¹ |  |
| G7C C50A | < 1e-05 s⁻¹ | < 1e-05 s⁻¹ |  | < 1e-05 s⁻¹ |
| U57C C58U | < 1e-05 s⁻¹ |  |  |  |
| C11A G38C | < 1e-05 s⁻¹ |  | < 1e-05 s⁻¹ |  |
| G41C A48G G63U | < 1e-05 s⁻¹ | < 1e-05 s⁻¹ | < 1e-05 s⁻¹ |  |
| G43U U57A | < 1e-05 s⁻¹ |  | < 1e-05 s⁻¹ |  |
| A53G C58A C68G | 0.000121 ± 4.6e-05 s⁻¹ |  | 0.000107 ± 2.5e-05 s⁻¹ |  |
